According to the supplement of paper PMC5998384:

How the values were obtained:
HeLa Kyoto [1] = experiment: solubility change mitosis vs G1/S (difference of NP-40 vs SDS log2 ratios) (log2 ratio difference); higher = more soluble in mitosis
HeLa Kyoto [2] = experiment: solubility in G1/S (NP-40 vs SDS abundance) (log2 ratio); higher = more soluble; conditions: cell cycle stage: G1/S
HeLa Kyoto [3] = experiment: thermal stability score vs G1/S (z-score of summed log2 fold changes over temperatures); higher = more thermally stable than in G1/S
HeLa Kyoto [4] = experiment: melting temperature (median over replicates), in situ; higher = more thermally stable
[5] = cell cycle stage: early G1 (4.5 h after nocodazole release)
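Wherever melting temperature (median over replicates), in situ is given: HeLa Kyoto cells synchronized by double thymidine or nocodazole block, proteins quantified by TMT10plex mass spectrometry, three independent biological replicates.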
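Wherever solubility change mitosis vs G1/S (difference of NP-40 vs SDS log2 ratios) is given: synchronized HeLa Kyoto cells (double thymidine block for G1/S, nocodazole release for mitosis), protein amounts in NP-40 versus SDS lysates quantified by mass spectrometry, three biological replicates.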
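Wherever solubility in G1/S (NP-40 vs SDS abundance) is given: HeLa Kyoto cells arrested at G1/S by double thymidine block, proteins quantified by TMT10plex mass spectrometry in mild NP-40 versus SDS extracts, three biological replicates.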
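Wherever thermal stability score vs G1/S (z-score of summed log2 fold changes over temperatures) is given: synchronized HeLa Kyoto cells, proteins quantified by TMT10plex mass spectrometry, three biological replicates, mitosis taken 0.5 h after nocodazole release, G1/S directly after double thymidine block.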

Substance | solubility change mitosis (log2) (HeLa Kyoto [1]) | solubility in G1/S (log2) (HeLa Kyoto [2]) | thermal stability score (HeLa Kyoto [3]; [5]) | thermal stability score (HeLa Kyoto [3]; cell cycle stage: mitosis) | melting temperature (HeLa Kyoto [4]; cell cycle stage: G1/S) [°C] | melting temperature (HeLa Kyoto [4]; cell cycle stage: mitosis) [°C]
MALSCTLNRYLLLMAQEHLEFRLPEIKSLLLLFGGQFASSQETYGKSPFWILSIPSEDIARNLMKRTVCAKSIFELWGHGQSPEELYSSLKNYPVEKMVPFLHSDSTYKIKIHTFNKTLTQEEKIKRIDALEFLPFEGKVNLKKPQHVFSVLEDYGLDPNCIPENPHNIYFGRWIADGQRELIESYSVKKRHFIGNTSMDAGLSFIMANHGKVKENDIVFDPFVGTGGLLIACAHFGAYVYGTDIDYNTVHGLGKATRKNQKWRGPDENIRANLRQYGLEKYYLDVLVSDASKPSWRKGTYFDAIITDPPYGIRESTRRTGSQKEIPKGIEKWEKCPESHVPVSLSYHLSDMFLDLLNFAAETLVLGGRLVYWLPVYTPEYTEEMVPWHPCLELVSNCEQKLSSHTSRRLITMEKVKKFENRDQYSHLLSDHFLPYQGHNSFREKYFSGVTKRIAKEEKSTQE [TRMT11] | -0.155 | 0.171 | 0.848 | -0.0136 | 54.4 | 53.5
MGILSITDQPPLVQAIFSRDVEEVRSLLSQKENINVLDQERRTPLHAAAYVGDVPILQLLLMSGANVNAKDTLWLTPLHRAAASRNEKVLGLLLAHSADVNARDKLWQTPLHVAAANRATKCAEALAPLLSSLNVADRSGRSALHHAVHSGHLETVNLLLNKGASLNVCDKKERQPLHWAAFLGHLEVLKLLVARGADLGCKDRKGYGLLHTAAASGQIEVVKYLLRMGAEIDEPNAFGNTALHIACYLGQDAVAIELVNAGANVNQPNDKGFTPLHVAAVSTNGALCLELLVNNGADVNYQSKEGKSPLHMAAIHGRFTRSQILIQNGSEIDCADKFGNTPLHVAARYGHELLISTLMTNGADTARRGIHDMFPLHLAVLFGFSDCCRKLLSSGQLYSIVSSLSNEHVLSAGFDINTPDNLGRTCLHAAASGGNVECLNLLLSSGADLRRRDKFGRTPLHYAAANGSYQCAVTLVTAGAGVNEADCKGCSPLHYAAASDTYRRAEPHTPSSHDAEEDEPLKESRRKEAFFCLEFLLDNGADPSLRDRQGYTAVHYAAAYGNRQNLELLLEMSFNCLEDVESTIPVSPLHLAAYNGHCEALKTLAETLVNLDVRDHKGRTALFLATERGSTECVEVLTAHGASALIKERKRKWTPLHAAAASGHTDSLHLLIDSGERADITDVMDAYGQTPLMLAIMNGHVDCVHLLLEKGSTADAADLRGRTALHRGAVTGCEDCLAALLDHDAFVLCRDFKGRTPIHLASACGHTAVLRTLLQAALSTDPLDAGVDYSGYSPMHWASYTGHEDCLELLLEHSPFSYLEGNPFTPLHCAVINNQDSTTEMLLGALGAKIVNSRDAKGRTPLHAAAFADNVSGLRMLLQHQAEVNATDHTGRTALMTAAENGQTAAVEFLLYRGKADLTVLDENKNTALHLACSKGHEKCALMILAETQDLGLINATNSALQMPLHIAARNGLASVVQALLSHGATVLAVDEEGHTPALACAPNKDVADCLALILSTMKPFPPKDAVSPFSFSLLKNCSIAAAKTVGGCGALPHGASCPYSQERPGAIGLDGCYSE [ANKRD52] | -0.171 | -0.0981 | -0.0695 | 0.105 | 51.5 | 49.7
MGLSPSAPAVAVQASNASASPPSGCPMHEGKMKGCPVNTEPSGPTCEKKTYSVPAHQERAYEYVECPIRGTAAENKENLDPSNLMPPPNQTPAPDQPFALSTVREESSIPRADSEKKWVYPSEQMFWNAMLKKGWKWKDEDISQKDMYNIIRIHNQNNEQAWKEILKWEALHAAECPCGPSLIRFGGKAKEYSPRARIRSWMGYELPFDRHDWIINRCGTEVRYVIDYYDGGEVNKDYQFTILDVRPALDSLSAVWDRMKVAWWRWTS [HCCS] | -0.0745 | 0.328 | -0.00681 | -0.977 | 55.3 | 55.1
MFLVGLTGGIASGKSSVIQVFQQLGCAVIDVDVMARHVVQPGYPAHRRIVEVFGTEVLLENGDINRKVLGDLIFNQPDRRQLLNAITHPEIRKEMMKETFKYFLRGYRYVILDIPLLFETKKLLKYMKHTVVVYCDRDTQLARLMRRNSLNRKDAEARINAQLPLTDKARMARHVLDNSGEWSVTKRQVILLHTELERSLEYLPLRFGVLTGLAAIASLLYLLTHYLLPYA [DCAKD] | -0.182 | -0.0828 | -0.154 | 0.0944 | 51.7 | 50.9
MDKQNSQMNASHPETNLPVGYPPQYPPTAFQGPPGYSGYPGPQVSYPPPPAGHSGPGPAGFPVPNQPVYNQPVYNQPVGAAGVPWMPAPQPPLNCPPGLEYLSQIDQILIHQQIELLEVLTGFETNNKYEIKNSFGQRVYFAAEDTDCCTRNCCGPSRPFTLRIIDNMGQEVITLERPLRCSSCCCPCCLQEIEIQAPPGVPIGYVIQTWHPCLPKFTIQNEKREDVLKISGPCVVCSCCGDVDFEIKSLDEQCVVGKISKHWTGILREAFTDADNFGIQFPLDLDVKMKAVMIGACFLIDFMFFESTGSQEQKSGVW [PLSCR1] | -0.349 | 0.1 | -0.835 | -1.61 | 57.7 | 57.2
MGCWGRNRGRLLCMLALTFMFMVLEVVVSRVTSSLAMLSDSFHMLSDVLALVVALVAERFARRTHATQKNTFGWIRAEVMGALVNAIFLTGLCFAILLEAIERFIEPHEMQQPLVVLGVGVAGLLVNVLGLCLFHHHSGFSQDSGHGHSHGGHGHGHGLPKGPRVKSTRPGSSDINVAPGEQGPDQEETNTLVANTSNSNGLKLDPADPENPRSGDTVEVQVNGNLVREPDHMELEEDRAGQLNMRGVFLHVLGDALGSVIVVVNALVFYFSWKGCSEGDFCVNPCFPDPCKAFVEIINSTHASVYEAGPCWVLYLDPTLCVVMVCILLYTTYPLLKESALILLQTVPKQIDIRNLIKELRNVEGVEEVHELHVWQLAGSRIIATAHIKCEDPTSYMEVAKTIKDVFHNHGIHATTIQPEFASVGSKSSVVPCELACRTQCALKQCCGTLPQAPSGKDAEKTPAVSISCLELSNNLEKKPRRTKAENIPAVVIEIKNMPNKQPESSL [SLC30A1] | -0.0896 | -0.0235 | -2.04 | -1.95 | 58.4 | 59.4
MDLFGDLPEPERSPRPAAGKEAQKGPLLFDDLPPASSTDSGSGGPLLFDDLPPASSGDSGSLATSISQMVKTEGKGAKRKTSEEEKNGSEELVEKKVCKASSVIFGLKGYVAERKGEREEMQDAHVILNDITEECRPPSSLITRVSYFAVFDGHGGIRASKFAAQNLHQNLIRKFPKGDVISVEKTVKRCLLDTFKHTDEEFLKQASSQKPAWKDGSTATCVLAVDNILYIANLGDSRAILCRYNEESQKHAALSLSKEHNPTQYEERMRIQKAGGNVRDGRVLGVLEVSRSIGDGQYKRCGVTSVPDIRRCQLTPNDRFILLACDGLFKVFTPEEAVNFILSCLEDEKIQTREGKSAADARYEAACNRLANKAVQRGSADNVTVMVVRIGH [ILKAP] | -0.0534 | 0.239 | 0.735 | 1.5 | 49.3 | 49.8
MANEVIKCKAAVAWEAGKPLSIEEIEVAPPKAHEVRIKIIATAVCHTDAYTLSGADPEGCFPVILGHEGAGIVESVGEGVTKLKAGDTVIPLYIPQCGECKFCLNPKTNLCQKIRVTQGKGLMPDGTSRFTCKGKTILHYMGTSTFSEYTVVADISVAKIDPLAPLDKVCLLGCGISTGYGAAVNTAKLEPGSVCAVFGLGGVGLAVIMGCKVAGASRIIGVDINKDKFARAKEFGATECINPQDFSKPIQEVLIEMTDGGVDYSFECIGNVKVMRAALEACHKGWGVSVVVGVAASGEEIATRPFQLVTGRTWKGTAFGGWKSVESVPKLVSEYMSKKIKVDEFVTHNLSFDEINKAFELMHSGKSIRTVVKI [ADH5] | -0.171 | 0.147 | -4.67 | -2.86 | 56.8 | 56.7
XRN1 | -0.0622 | -0.345 | 0.741 | 0.939 | 49 | 48.5
MREYKVVVLGSGGVGKSALTVQFVTGTFIEKYDPTIEDFYRKEIEVDSSPSVLEILDTAGTEQFASMRDLYIKNGQGFILVYSLVNQQSFQDIKPMRDQIVRVKRYEKVPLILVGNKVDLEPEREVMSSEGRALAQEWGCPFMETSAKSKSMVDELFAEIVRQMNYSSLPEKQDQCCTTCVVQ [RAP2C] | -0.0697 | 0.0732 | 1.5 | -1.73 | 56.9 | 55.4
